B1: N-terminally His6-tagged NusA^AR2 (domain or fragment)
chain: DNKPADDLLNLEGVDRDLAFKLAARGVCTLEDLAEQGIDDLADIEGLTDEKAGALIMAARNICWFGDEA
B2: SuhB (inositol mono-phosphatase SuhB), wild type (natural protein)
chain: MHPMLNIAVRAARKAGNLIAKNYETPDAVEASQKGSNDFVTNVDKAAEAVIIDTIRKSYPQHTIITEESGELEGTDQDVQWVIDPLDGTTNFIKRLPHFAVSIAVRIKGRTEVAVVYDPMRNELFTATRGQGAQLNGYRLRGSTARDLDGTILATGFPFKAKQYATTYINIVGKLFNECADFRRTGSAALDLAYVAAGRVDGFFEIGLRPWDFAAGELLVREAGGIVSDFTGGHNYMLTGNIVAGNPRVVKAMLANMRDELSDALKR

Experiment in all cases: SPR
A general note: SPR reads the build-up and loss of mass on a sensor chip optically.

For one experiment, the target named is SuhB^KL251/254AA (E. coli, UniProt P0ADG4 1-267, KL251/254AA | KL251/254AA).
For another experiment, the target named is SuhB^K108A (E. coli, UniProt P0ADG4 1-267, K108A).
The target of experiment [1] is B1.

B1: the koff in the experiment with SuhB^KL251/254AA is 0.341 s⁻¹; in the experiment with SuhB^K108A, 0.0498 s⁻¹. On to B2, for which the koff in experiment [1] stood at 0.0555 s⁻¹.

In general, koff refers to a measure of how fast the partners let go of each other.

Values taken from PMC6614801 (2019).
